Assay results reported in the Immune Epitope Database (IEDB).
One block for each sequence: values may come before it.

Key:
HLA-A*01:01 = test: IEDB peptide-MHC binding, purified MHC/direct/fluorescence; filed as Kd, often an IC50 or EC50 that approximates it; ≥ and ≤ were set here for values at or beyond the usual limits of such assays
HLA-A*02:01 = test: as above
HLA-A*03:01 = test: as above
HLA-A*24:02 [1] = test: as above
HLA-A*26:01 = test: as above
HLA-A*69:01 = test: as above
HLA-B*07:02 [2] = test: as above
HLA-B*08:01 = test: as above
HLA-B*08:02 = test: as above
HLA-B*15:01 = test: as above
HLA-B*18:01 = test: as above
HLA-B*27:05 = test: as above
HLA-B*40:01 = test: as above
HLA-B*44:02 = test: as above
HLA-B*46:01 = test: as above
HLA-B*58:01 = test: as above
HLA-C*14:02 = test: as above
HLA-A*24:03 [3] = test: IEDB peptide-MHC binding, purified MHC/competitive/fluorescence; filed as Kd, often an IC50 or EC50 that approximates it; ≥ and ≤ were set here for values at or beyond the usual limits of such assays; conditions: source organism: Escherichia coli str. K-12 substr. MG1655
HLA-A*24:02 [4] = test: as above
HLA-C*05:01 = test: IEDB peptide-MHC binding, purified MHC/direct/fluorescence; filed as Kd, often an IC50 or EC50 that approximates it; ≥ and ≤ were set here for values at or beyond the usual limits of such assays; conditions: source organism: Variola virus
HLA-B*07:02 [5] = test: IEDB peptide-MHC binding, purified MHC/competitive/radioactivity; filed as Kd, often an IC50 or EC50 that approximates it; ≥ and ≤ were set here for values at or beyond the usual limits of such assays; conditions: source organism: Vaccinia virus WR
HLA-B*35:01 = test: as above; conditions: source organism: Vaccinia virus WR
HLA-B*51:01 [6] = test: as above; conditions: source organism: Vaccinia virus WR
HLA-B*53:01 = test: as above; conditions: source organism: Vaccinia virus WR
HLA-B*54:01 = test: as above; conditions: source organism: Vaccinia virus WR
HLA-C*07:02 = test: IEDB peptide-MHC binding, purified MHC/direct/fluorescence; filed as Kd, often an IC50 or EC50 that approximates it; ≥ and ≤ were set here for values at or beyond the usual limits of such assays; conditions: source organism: Cryptosporidium parvum Iowa II
HLA-A*24:03 [7] = test: as above
HLA-C*15:02 = test: as above
HLA-C*06:02 = test: as above; conditions: source organism: Cryptosporidium parvum
HLA-A*02:03 = test: as above
HLA-A*02:11 = test: as above; conditions: source organism: Toxoplasma gondii RH
HLA-A*02:12 = test: as above
HLA-A*02:16 = test: as above
HLA-A*02:19 = test: as above
HLA-A*29:02 = test: as above; conditions: source organism: Toxoplasma gondii RH
HLA-B*15:17 = test: as above; conditions: source organism: Toxoplasma gondii RH
HLA-B*27:03 = test: as above
HLA-B*51:01 [8] = test: as above
HLA-B*57:01 = test: as above; conditions: source organism: Toxoplasma gondii RH
HLA-B*39:01 = test: as above; conditions: source organism: Campylobacter jejuni subsp. jejuni 81116
HLA-C*03:03 = test: as above; conditions: source organism: Campylobacter jejuni subsp. jejuni 81-176
[9] = source organism: Influenza A virus (A/swine/Korea/S190/2004(H9N2))
[10] = source organism: Influenza A virus (A/Puerto Rico/8/34/Mount Sinai(H1N1))
[11] = source organism: Influenza A virus H3N2
[12] = source organism: Escherichia coli O157:H7
[13] = source organism: Staphylococcus aureus subsp. aureus N315
[14] = source organism: Influenza A virus (A/chicken/Vietnam/5/2003(H5N1))
[15] = source organism: Influenza A virus(A/swine/Henan/3/2004(H9N2))
[16] = source organism: Cryptosporidium parvum
[17] = source organism: Toxoplasma gondii RH
[18] = source organism: Campylobacter jejuni subsp. jejuni 81116

Sequence: ATTHSWIPK
Kd (HLA-A*01:01; [9]): ≥ 20 µM
Kd (HLA-A*02:01; [9]): ≥ 20 µM
Kd (HLA-A*03:01; [10]): 0.826 µM
Kd (HLA-A*24:02 [1]; [9]): ≥ 20 µM
Kd (HLA-A*26:01; [11]): ≥ 20 µM
Kd (HLA-A*69:01; [9]): ≥ 20 µM
Kd (HLA-B*07:02 [2]; [9]): ≥ 20 µM
Kd (HLA-B*08:01; [9]): ≥ 20 µM
Kd (HLA-B*08:02; [11]): ≥ 20 µM
Kd (HLA-B*15:01; [9]): ≥ 20 µM
Kd (HLA-B*18:01; [9]): ≥ 20 µM
Kd (HLA-B*27:05; [9]): ≥ 20 µM
Kd (HLA-B*40:01; [9]): ≥ 20 µM
Kd (HLA-B*44:02; [9]): ≥ 20 µM
Kd (HLA-B*46:01; [9]): ≥ 20 µM
Kd (HLA-B*58:01; [9]): ≥ 20 µM

Kd (HLA-C*14:02; source organism: Escherichia coli str. K-12 substr. MG1655): ≤ 0.001 µM
Kd (HLA-A*24:03 [3]): 0.406 µM
Sequence: AYPELACAV

Sequence: KWMMAMRYPI
Kd (HLA-A*24:02 [4]; source organism: Influenza A virus (A/chicken/Fujian/25/00(H9N2))): 0.0032 µM

Sequence: LPMIIGEPI
Kd (HLA-C*05:01): ≥ 20 µM
Kd (HLA-B*07:02 [5]): 0.000255 µM
Kd (HLA-B*35:01): 0.0645 µM
Kd (HLA-B*51:01 [6]): 0.00117 µM
Kd (HLA-B*53:01): 0.0056 µM
Kd (HLA-B*54:01): 0.00157 µM

Sequence: NYKWWWFSF
Kd (HLA-C*07:02): 0.181 µM
Kd (HLA-A*24:02 [4]; source organism: Cryptosporidium parvum Iowa II): 0.0023 µM

Kd (HLA-A*01:01; [12]): ≥ 20 µM
Kd (HLA-A*02:01; [12]): 5.7 µM
Kd (HLA-A*03:01; [12]): ≥ 20 µM
Kd (HLA-A*24:02 [1]; [12]): ≥ 20 µM
Kd (HLA-B*07:02 [2]; [12]): ≥ 20 µM
Kd (HLA-B*15:01; [12]): ≥ 20 µM
Kd (HLA-B*18:01; [12]): ≥ 20 µM
Kd (HLA-B*27:05; [12]): ≥ 20 µM
Kd (HLA-B*40:01; [12]): ≥ 20 µM
Kd (HLA-B*44:02; [12]): ≥ 20 µM
Kd (HLA-B*46:01; [12]): ≥ 20 µM
Kd (HLA-B*58:01; [12]): ≥ 20 µM
Sequence: PILPKLFIL

Sequence: RTQAVIYAF
Kd (HLA-A*24:03 [7]; source organism: Bacillus anthracis): 0.0013 µM
Kd (HLA-C*14:02; [13]): 0.133 µM
Kd (HLA-C*15:02; [13]): 1.4 µM

Sequence: RVDKLTQGR
Kd (HLA-A*01:01; [14]): ≥ 20 µM
Kd (HLA-A*02:01; [14]): ≥ 20 µM
Kd (HLA-A*03:01; [10]): ≥ 10 µM
Kd (HLA-A*24:02 [1]; [14]): ≥ 20 µM
Kd (HLA-A*26:01; [15]): ≥ 20 µM
Kd (HLA-A*69:01; [14]): ≥ 20 µM
Kd (HLA-B*07:02 [2]; [14]): ≥ 20 µM
Kd (HLA-B*08:01; [14]): ≥ 20 µM
Kd (HLA-B*08:02; [15]): ≥ 20 µM
Kd (HLA-B*15:01; [14]): ≥ 20 µM
Kd (HLA-B*18:01; [14]): ≥ 20 µM
Kd (HLA-B*27:05; [14]): ≥ 20 µM
Kd (HLA-B*40:01; [14]): ≥ 20 µM
Kd (HLA-B*44:02; [14]): ≥ 20 µM
Kd (HLA-B*46:01; [14]): ≥ 20 µM
Kd (HLA-B*58:01; [14]): ≥ 20 µM

Sequence: RYMYIYLFI
Kd (HLA-A*24:03 [7]; [16]): 0.004 µM
Kd (HLA-C*06:02): ≥ 20 µM
Kd (HLA-A*24:02 [4]; [16]): 0.0036 µM

Sequence: RYSKKFKPEI
Kd (HLA-A*24:02 [4]; source organism: Influenza A virus (A/Swine/Indiana/9K035/99 (H1N2))): 0.033 µM

Sequence: THADAHTQL
Kd (HLA-A*02:01; [17]): ≥ 20 µM
Kd (HLA-A*02:03; [17]): ≥ 20 µM
Kd (HLA-A*02:11): ≥ 20 µM
Kd (HLA-A*02:12; [17]): ≥ 20 µM
Kd (HLA-A*02:16; [17]): ≥ 20 µM
Kd (HLA-A*02:19; [17]): ≥ 20 µM
Kd (HLA-A*03:01; [17]): ≥ 20 µM
Kd (HLA-A*24:03 [7]; [17]): ≥ 20 µM
Kd (HLA-A*26:01; [17]): ≥ 20 µM
Kd (HLA-A*29:02): ≥ 20 µM
Kd (HLA-A*69:01; [17]): ≥ 20 µM
Kd (HLA-B*15:01; [17]): ≥ 20 µM
Kd (HLA-B*15:17): ≥ 20 µM
Kd (HLA-B*18:01; [17]): ≥ 20 µM
Kd (HLA-B*27:03; [17]): ≥ 20 µM
Kd (HLA-B*46:01; [17]): ≥ 20 µM
Kd (HLA-B*51:01 [8]; [17]): ≥ 20 µM
Kd (HLA-B*57:01): ≥ 20 µM

Kd (HLA-C*14:02; source organism: Homo sapiens): 0.098 µM
Kd (HLA-C*15:02; source organism: Homo sapiens): ≥ 20 µM
Sequence: YTASVVAAY

Sequence: YTNYPFLFF
Kd (HLA-A*02:01; [18]): ≥ 20 µM
Kd (HLA-A*02:03; [18]): ≥ 20 µM
Kd (HLA-A*02:12; [18]): ≥ 20 µM
Kd (HLA-A*02:16; [18]): ≥ 20 µM
Kd (HLA-A*02:19; [18]): ≥ 20 µM
Kd (HLA-A*03:01; [18]): ≥ 20 µM
Kd (HLA-B*27:03; [18]): ≥ 20 µM
Kd (HLA-B*39:01): ≥ 20 µM
Kd (HLA-B*51:01 [8]; [18]): ≥ 20 µM
Kd (HLA-C*03:03): 0.159 µM
Kd (HLA-C*15:02; source organism: Campylobacter jejuni subsp. jejuni 81-176): 0.025 µM
